Data published in patent US20150086555A1 (THERACLONE SCIENCES, published 2015).

These binders were tested against hemagglutinin (HA) of influenza A/Japan/305/57 (H2N2) on whole virions (Influenza A virus A/Japan/305/1957(H2N2), UniProt P03451 16-562) (assay: ELISA; BCC supernatant on coated inactivated whole virions).

Row | Binder | ELISA virus binding (OD450)
1 | TCN-526 (5084_C17) (antibody, V domains shown) VH: EVLMVESGGGLVQPGGSVRLSCVASGFSFSSHWMTWVRQAPGKGLEWVANIEDDGGDKYYVDSVKGRFIISRDNAKNSVYLQMNSLRAEDTAVYFCARGSGSSDRSDYDPHYYYYLDVWGKGATVTVSS VL: DIQLTQSPSSLSASVGDRVTITCRASQSISRYLNWYQQKPGKAPKLLLFAASTLLDGVPSRFSGSGSGTDFTLTISSLQPEDFATYYCQRNHSPSWTFGQGTRVEIK | 0.07 OD450
2 | TCN-534 (5249_B02) (antibody, V domains shown) VH: QVQLVQSGAEVKKPGSSVKVSCRESGGTFNGYTITWVRQAPGQGLEWMGGIIPMMGTVNYAQKLQGRVTITTDYFTKTAYMDLNNLRSEDTAMYYCVKIRYTGQQLLWGQGTLVTVSS VL: DIQMTQSPSTLSASIGDRVTITCRASQSIASWLAWYQQKPGKAPKLLIYEAVNLESGVPSRFSGSGSGTDFTLTISSLQPDDFATYFCQHYGTISQTFGGGTKVEIK | 2.56 OD450
3 | TCN-535 (5246_P19) (antibody, V domains shown) VH: QVQLVQSGSEVKKPGTSVKVSCTASGSVFTNYGISWVRQAPGQGLEWMGGIIPLFGAAKYAQKFQGRVTITADESTKTVYMELSRLTSKDTAIYFCAKAPRVYEYYFDQWGQGTPVTVSS VL: EIVLTQSPGTLSLSPGERATLSCRASQSVSSSQLAWYQQKPGQAPRLIIYGASTRATGIPDRFSGSGSGTDFTLTIGRLEPEDFAVFFCQQYSTSPPTFGQGTKVDFK | 1.46 OD450
4 | TCN-560 (5084_P10) (antibody, V domains shown) VH: EVQLVESGGGLVQPGGSLRLSCAASGFIFRNYWMSWVRQAPGKGLEWVANIKQDGREKYYVDSLRGRVNISRDNAENSLYLHMNSLRVEDTAVYFCARARMVVVTGDGFDVWGHGTMVTVSS VL: DIQMTQSPSSLSASVGDRVTITCRASQNIKRYFNWYQQKPGKAPKLLIYAASNLENGVPSRFSGSGSGTDFTLTISSLQPEDFATYYCQQSFSKSWTFGQGTNVDIK | 2.07 OD450
5 | TCN-564 (5256_A17b) (antibody, V domains shown) VH: QVQLVQSGADVKKPGSSVTVSCKASGGSFSNYGINWVRQAPGQGLEWMGGIIPLINAPNYAPKFQGRVTITADMFSNIVSLQLTSLRTDDTAVYYCARRKMTTAIDYWGQGTLVTVSS VL: QPVLSQPPSASASLGASVTLTCTLSSGFDNYQVAWYQQRPGKGPRFVMRVGNGGNVASKGDGIPDRFSVSGSGLNRYLTIKNIQEDDESDYYCGADHGSGNNFVSPYVFGGGTKLTVL | 1.1 OD450
6 | TCN-533 (5256_A17a) (antibody, V domains shown) VH: QVQLVQSGADVKKPGSSVTVSCKASGGSFSNYGINWVRQAPGQGLEWMGGIIPLINAPNYAPKFQGRVTITADMFSNIVSLQLTSLRTDDTAVYYCARRKMTTAIDYWGQGTLVTVSS VL: QPVLTQPPSASASLGASVTLTCTLSSAYSNYKVDWYQQRPGKGPRFVMRVGTGGIVGSKGDGIPDRFSVLGSGLNRYLTIKNIQEEDESDYHCGADHGSGSNFVSPYVFGGGTKLTVL | 1.1 OD450
7 | TCN-539 (5056_A08) (antibody, V domains shown) VH: QVQLVESGGGVVQPGRSLRLSCAASEITFITYAMHWVRQAPGKGLEWVALISDDGSNKFYADSVKGRFTISRDNSKNTLYLQMNSLRAEDTAAYYCAREGVYFDSGTYRGYFDYWGQETLVTVSS VL: EIVLTQSPATLSLSPGERATLSCRASQSVSSYLAWYQQKPGQAPRLLIYDASNRATGIPARFSGSGSGTDFTLTISSLEPEDFAVYYCQQRSHWPPITFGQGTRLEIK | 0.06 OD450
8 | TCN-555 (5246_L16) (antibody, V domains shown) VH: QVQLVQSGAEVKRPGSSVKVSCTASGGIFRKNAISWVRQAPGQGLEWMGGIIAVFNTANYAQKFQNRVKITADESGNTAYMELSSLTSDDTAVYYCASHPKYFYGSGSYPDFWGQGTLVTVSS VL: QSALTQPRSVSGSPGQSITISCTGGSSDIGASNSVSWYQQHPGKAPKLVIFDVTERPSGVPHRFSGSKSGNTASLTVSGLQPDDEADYFCCAYGGKYLVVFGGGTKVTVL | 0.6 OD450
9 | TCN-563 (5237_B21) (antibody, V domains shown) VH: QVQLAQSGAEVKRPGSSVKVSCTASGGIFRKNAISWVRQAPGQGLEWMGGIIAVFNTANYAQKFQGRVKITADESGNTAYMELSSLRSDDTAVYYCASHPKYFYGSGSYPDFWGQGTLVTVSS VL: QSALTQPRSVSGSPGQSVTISCTGSSSDVGASNSVSWYQQHPGKAPKLVIYDVTERPSGVPHRFSGSKSGNTASLTVSGLQPEDEADYFCCAYGGKYLVVFGGGTKVTVL | 1.23 OD450
10 | TCN-531 (5091_H13) (antibody, V domains shown) VH: EVQLVESGGDLVQPGRSLKLSCTGSGFTFGDYGVTWVRQAPGKGLEWVGFIRTRPWGGTADTAASVKGRFTISRDDSKSLAYLQMNSLKTEDTAVYYCCRDAPPNVEVASMTNWYFDLWGRGTLVTVSS VL: DIQLTQSPSSLSASVGDRVTITCRASQGILNCLAWYQQKPGKVPNLLMYAASTLQSGVPSRFSGSGFGTDFTLTISSLQPEDVATYYCQTYGGVSTFGGGTKVEIR | 0.67 OD450
11 | TCN-528 (5087_P17) (antibody, V domains shown) VH: QVQLVQSGSEVKKPGASVKVSCKASGYTFTNYDINWIRQAPGQGLEWMGWINPNSGTTGSAQRFQGRVTITVDTSITTVYMELSSLRSDDTAIYYCARGRELLRLQHFLTDSQSERRDCFDPWGQGTLVTVSS VL: DIQMTQSPSSLSASVGDRVTITCRANQDIGIYLNWYQQNPGKVPKLLLHGASSLQGGVPSRFSASGSGTDFTLTIHSLQPEDLATYYCQQSRRLPYTFGQGTRVELK | 2.82 OD450
12 | TCN-521 (3280_D18) (antibody, V domains shown) VH: EVQLVQSGGGLVQPGGSLRLACVVSGFTVTSNYITWVRQAPGKGLEWVSVIYSHGRAYYSASVNGRFTISRHTSKNTVYLEMNSLRPEDTAVYYCAGGGLVGGYDEYFFDYWGQGTLATVSS VL: ETVLTQSPGTLSLTPGERATLSCRVGQSVSGSHLAWYQQKPGQAPRLLIYGASSRATGIPDRFGGSVSGTDFTLTISRLEPEDSAVYYCQQYGDSRYTFGQGTKLEIK | 3.1 OD450
13 | TCN-536 (5095_N01) (antibody, V domains shown) VH: QVQLQQWGAGLLKPSETLSLTCAVYGGSFSVSGYYWSWIRQPPGRGLEWIGEISHGGSTNYNPSLKSRVTISVDTTKNQFSLRLSSVTAADTAVYYCARGTDPDTEVYCRVGNCAAFDYWGQGSLVTVSS VL: EIILAQSPGTLSLSPGERATLSCRASQFVSTRSLAWYQQRPGQAPRLLIYGASSRATGIPDRFSGSGSGTDFTLTISRLEPEDFAVYYCQHYGYSPRYAFGQGSKVEIK | 0.08 OD450
14 | TCN-530 (5248_H10a) (antibody, V domains shown) VH: QVQLVQSGAEVRKPGSSVKVSCKASGGPFMSYAIGWVRQAPGQGLEWMGGINPVFGRPHYAQKFQGRVTIATDDSTKTSYMELSSLTSEDTGMYYCASRYSRSSPGTFESWGQGTLVTVSS VL: EIVMTQFPATLSVSPGERVTLSCRASQSVSNNLAWYQQKPGQPPRLLIYDASTRATGVPAKFSGTGSGTEFTLSISSLQSEDFAVYYCQQYHNWPPSYSFGLGTKLEIK | 1.73 OD450
15 | TCN-527 (5086_C06) (antibody, V domains shown) VH: QVQLQESGPGLVKPSETLSLNCAVSGGSISNYYWSWIRQPPGKGLEWIGYISYNGRPKYNPSLTSRVTISVDTSKDQFSLELRSVTAADTALYYCARETRFGELLSPYDAFEIWGQGTMVTVSS VL: DIQMTQSPSSLSASVGDRVTMTCRASQNIRSYLNWYQQRPGTAPKLLIYAASTLHSGVPSRFSGGGSGTDFTLTINNLQPEDFASYYCQQSYDNPQTFGQGTKVEIK | 1.48 OD450
